In experiment [1] the test system is synthetic promoter containing the designed DBP binding sites controlling YFP. Description: Transcriptional repression assay (NOT gate, YFP) in E. coli. Particulars: IPTG induction (1 mM), flow cytometry. Type of experiment: cell-based, Escherichia coli. From the text: We next tested the ability of the designed DBPs to function in cells to regulate transcription. We constructed candidate NOT gates (38) to assay transcriptional repression in Escherichia coli, where the input is a designed DBP under control of the IPTG-inducible PTac promoter and the output is yellow fluorescent protein (YFP) expression driven by a promoter incorporating each DBP's DNA binding site. […] To increase avidity and bulk, we fused the DBPs to the homodimerization domain of the TetR protein (39), using RFdiffusion (40) and ProteinMPNN sequence design to generate rigid linkers that orient the DBP domain of each dimer unit on a DNA target containing two palindromic binding sites. For DBPs 48, 69, and 57, we selected 96 TetR fusions for experimental characterization in the NOT gate circuit. Upon initial screening, we observed modest repression for several designs and selected two for further validation (one incorporating DBP48, the other DBP57) (FIG. 8). […]
(In general: In flow cytometry, cells or beads pass a laser one at a time.)

In experiment [2] the test system is biotinylated target dsDNA with non-biotinylated competitor dsDNA. Description: Yeast display competition assay with base-substituted competitor dsDNA. The format is binding. Particulars: all possible base mutations at each position of the competitor oligo.

The results in this text go back to patent US20250051407A1, “De novo designed sequence-specific DNA binding proteins” (University of Washington, priority 2023, published 2025).

B1: DBP48: designed DNA-binding protein, SEQ ID NO: 22, DNA target D (protein)
chain: MTPEEIAEAKRIGKEVKERRKELGLTQRELAEKLGVSRSTVSDIENGRRLPSEELLKKIKEILGV
Consider B1, for which the “Fold repression of YFP by single DBP domains and tandem linked DBP domains” value in experiment [1] is “not observed”. Besides, the “DNA binding site specificity” value in experiment [2] is “specificities consistent with the designed sidechain-base interactions”.
